Data published in US20090130105A1 (Biogen, published 2009).

Biological target: T1, human IGF-1R(1-903)-Fc (human, UniProt P08069 31-933)
T1 construct: also called hIGF-1R-Fc; SDWT; not shown: human IgG1 Fc, C-terminal tag
Experiment: biolayer interferometry (Octet), IGF-1R Fc on Protein A sensors, scFv culture supernatant
Parameters: unit not given here
Text: Individual transformed colonies were picked into deep-well 96 well dishes and processed for screening as described above. […] For off-rate analyses IGF-1R Fc was immobilized onto the surface of Protein A biosensors. […] ScFvs were allowed to bind to immobilized IGF-1R Fc for 300-seconds. Off-rate was subsequently assayed for 600 seconds.

T1 sequence (P08069 31-933): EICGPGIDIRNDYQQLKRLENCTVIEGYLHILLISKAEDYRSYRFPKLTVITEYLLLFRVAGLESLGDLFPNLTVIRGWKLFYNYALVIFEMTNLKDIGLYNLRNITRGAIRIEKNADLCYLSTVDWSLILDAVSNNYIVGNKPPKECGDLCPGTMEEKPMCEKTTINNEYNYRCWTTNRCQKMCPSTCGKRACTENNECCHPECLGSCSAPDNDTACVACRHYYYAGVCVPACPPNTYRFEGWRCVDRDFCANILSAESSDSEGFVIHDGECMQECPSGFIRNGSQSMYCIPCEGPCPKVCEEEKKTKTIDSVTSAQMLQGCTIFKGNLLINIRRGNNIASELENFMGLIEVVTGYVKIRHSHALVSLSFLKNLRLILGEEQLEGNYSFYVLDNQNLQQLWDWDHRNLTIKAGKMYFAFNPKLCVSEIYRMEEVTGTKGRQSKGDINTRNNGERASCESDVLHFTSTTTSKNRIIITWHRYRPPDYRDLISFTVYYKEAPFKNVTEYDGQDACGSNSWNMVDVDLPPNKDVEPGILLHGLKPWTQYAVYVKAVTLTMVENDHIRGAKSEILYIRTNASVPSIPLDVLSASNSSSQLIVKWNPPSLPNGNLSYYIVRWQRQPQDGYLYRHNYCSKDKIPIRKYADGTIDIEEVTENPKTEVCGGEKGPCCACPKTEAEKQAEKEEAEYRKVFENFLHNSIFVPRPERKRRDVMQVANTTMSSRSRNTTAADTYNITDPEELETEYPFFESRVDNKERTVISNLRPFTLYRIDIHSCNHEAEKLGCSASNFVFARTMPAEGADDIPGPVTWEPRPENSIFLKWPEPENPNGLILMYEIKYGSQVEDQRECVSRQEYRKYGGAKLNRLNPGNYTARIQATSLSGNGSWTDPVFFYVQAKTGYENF

Row | Binder | Kd (1/sec), off-rate as tabulated (XWU092 = 1.00)
1 | MJF018, C06 (VL/GS3/VH) scFv with VL V15N (scFv, Kabat positions) scFv: DIQMTQSPLSLSASNGDRVTITCQASRDIRNYLNWYQQKPGKAPKLLIYDASSLQTGVPSRFGGSGSGTDFSFTIGSLQPEDIATYYCQQFDSLPHTFGQGTKLEIKGGGGSGGGGSGGGGSEVQLLESGGGLVQPGGSLRLSCAASGFTFSIYRMQWVRQAPGKGLEWVSGISPSGGTTWYADSVKGRFTISRDNSKNTLYLQMNSLRAEDTAVYYCARWSGGSGYAFDIWGQGTMVTVSSDDDKSFLEQKLISEEDLNSAVDHHHHHH | 1.16
2 | MJF024, C06 (VL/GS3/VH) scFv with VL V15A (scFv, Kabat positions) scFv: DIQMTQSPLSLSASAGDRVTITCQASRDIRNYLNWYQQKPGKAPKLLIYDASSLQTGVPSRFGGSGSGTDFSFTIGSLQPEDIATYYCQQFDSLPHTFGQGTKLEIKGGGGSGGGGSGGGGSEVQLLESGGGLVQPGGSLRLSCAASGFTFSIYRMQWVRQAPGKGLEWVSGISPSGGTTWYADSVKGRFTISRDNSKNTLYLQMNSLRAEDTAVYYCARWSGGSGYAFDIWGQGTMVTVSSDDDKSFLEQKLISEEDLNSAVDHHHHHH | 0.89
3 | MJF023, C06 (VL/GS3/VH) scFv with VL L11G, V15N (scFv, Kabat positions) scFv: DIQMTQSPLSGSASNGDRVTITCQASRDIRNYLNWYQQKPGKAPKLLIYDASSLQTGVPSRFGGSGSGTDFSFTIGSLQPEDIATYYCQQFDSLPHTFGQGTKLEIKGGGGSGGGGSGGGGSEVQLLESGGGLVQPGGSLRLSCAASGFTFSIYRMQWVRQAPGKGLEWVSGISPSGGTTWYADSVKGRFTISRDNSKNTLYLQMNSLRAEDTAVYYCARWSGGSGYAFDIWGQGTMVTVSSDDDKSFLEQKLISEEDLNSAVDHHHHHH | 0.68
4 | MJF020, C06 (VL/GS3/VH) scFv with VL V15E (scFv, Kabat positions) scFv: DIQMTQSPLSLSASEGDRVTITCQASRDIRNYLNWYQQKPGKAPKLLIYDASSLQTGVPSRFGGSGSGTDFSFTIGSLQPEDIATYYCQQFDSLPHTFGQGTKLEIKGGGGSGGGGSGGGGSEVQLLESGGGLVQPGGSLRLSCAASGFTFSIYRMQWVRQAPGKGLEWVSGISPSGGTTWYADSVKGRFTISRDNSKNTLYLQMNSLRAEDTAVYYCARWSGGSGYAFDIWGQGTMVTVSSDDDKSFLEQKLISEEDLNSAVDHHHHHH | 0.76
5 | MJF026, C06 (VL/GS3/VH) scFv with VL V15S; VH T110V (scFv, name in Kabat numbering, Kabat positions) scFv: DIQMTQSPLSLSASSGDRVTITCQASRDIRNYLNWYQQKPGKAPKLLIYDASSLQTGVPSRFGGSGSGTDFSFTIGSLQPEDIATYYCQQFDSLPHTFGQGTKLEIKGGGGSGGGGSGGGGSEVQLLESGGGLVQPGGSLRLSCAASGFTFSIYRMQWVRQAPGKGLEWVSGISPSGGTTWYADSVKGRFTISRDNSKNTLYLQMNSLRAEDTAVYYCARWSGGSGYAFDIWGQGTMVVVSSDDDKSFLEQKLISEEDLNSAVDHHHHHH | 0.99
6 | MJF021, C06 (VL/GS3/VH) scFv with VL V15I (scFv, Kabat positions) scFv: DIQMTQSPLSLSASIGDRVTITCQASRDIRNYLNWYQQKPGKAPKLLIYDASSLQTGVPSRFGGSGSGTDFSFTIGSLQPEDIATYYCQQFDSLPHTFGQGTKLEIKGGGGSGGGGSGGGGSEVQLLESGGGLVQPGGSLRLSCAASGFTFSIYRMQWVRQAPGKGLEWVSGISPSGGTTWYADSVKGRFTISRDNSKNTLYLQMNSLRAEDTAVYYCARWSGGSGYAFDIWGQGTMVTVSSDDDKSFLEQKLISEEDLNSAVDHHHHHH | 0.81
7 | MJF027, C06 (VL/GS3/VH) scFv with VL Q24K (scFv, Kabat positions) scFv: DIQMTQSPLSLSASVGDRVTITCKASRDIRNYLNWYQQKPGKAPKLLIYDASSLQTGVPSRFGGSGSGTDFSFTIGSLQPEDIATYYCQQFDSLPHTFGQGTKLEIKGGGGSGGGGSGGGGSEVQLLESGGGLVQPGGSLRLSCAASGFTFSIYRMQWVRQAPGKGLEWVSGISPSGGTTWYADSVKGRFTISRDNSKNTLYLQMNSLRAEDTAVYYCARWSGGSGYAFDIWGQGTMVTVSSDDDKSFLEQKLISEEDLNSAVDHHHHHH | 1.12
8 | MJF033, C06 (VL/GS3/VH) scFv with VL T20R, R30N; VH S21E (scFv, name in Kabat numbering, Kabat positions) scFv: DIQMTQSPLSLSASVGDRVRITCQASRDINNYLNWYQQKPGKAPKLLIYDASSLQTGVPSRFGGSGSGTDFSFTIGSLQPEDIATYYCQQFDSLPHTFGQGTKLEIKGGGGSGGGGSGGGGSEVQLLESGGGLVQPGGSLRLECAASGFTFSIYRMQWVRQAPGKGLEWVSGISPSGGTTWYADSVKGRFTISRDNSKNTLYLQMNSLRAEDTAVYYCARWSGGSGYAFDIWGQGTMVTVSSDDDKSFLEQKLISEEDLNSAVDHHHHHH | 0.78
9 | MJF031, C06 (VL/GS3/VH) scFv with VL R30N (scFv, Kabat positions) scFv: DIQMTQSPLSLSASVGDRVTITCQASRDINNYLNWYQQKPGKAPKLLIYDASSLQTGVPSRFGGSGSGTDFSFTIGSLQPEDIATYYCQQFDSLPHTFGQGTKLEIKGGGGSGGGGSGGGGSEVQLLESGGGLVQPGGSLRLSCAASGFTFSIYRMQWVRQAPGKGLEWVSGISPSGGTTWYADSVKGRFTISRDNSKNTLYLQMNSLRAEDTAVYYCARWSGGSGYAFDIWGQGTMVTVSSDDDKSFLEQKLISEEDLNSAVDHHHHHH | 0.59
10 | MJF029, C06 (VL/GS3/VH) scFv with VL T20R, R30Y (scFv, Kabat positions) scFv: DIQMTQSPLSLSASVGDRVRITCQASRDIYNYLNWYQQKPGKAPKLLIYDASSLQTGVPSRFGGSGSGTDFSFTIGSLQPEDIATYYCQQFDSLPHTFGQGTKLEIKGGGGSGGGGSGGGGSEVQLLESGGGLVQPGGSLRLSCAASGFTFSIYRMQWVRQAPGKGLEWVSGISPSGGTTWYADSVKGRFTISRDNSKNTLYLQMNSLRAEDTAVYYCARWSGGSGYAFDIWGQGTMVTVSSDDDKSFLEQKLISEEDLNSAVDHHHHHH | 0.68
11 | MJF017, C06 (VL/GS3/VH) scFv with VL T74S (scFv, Kabat positions) scFv: DIQMTQSPLSLSASVGDRVTITCQASRDIRNYLNWYQQKPGKAPKLLIYDASSLQTGVPSRFGGSGSGTDFSFSIGSLQPEDIATYYCQQFDSLPHTFGQGTKLEIKGGGGSGGGGSGGGGSEVQLLESGGGLVQPGGSLRLSCAASGFTFSIYRMQWVRQAPGKGLEWVSGISPSGGTTWYADSVKGRFTISRDNSKNTLYLQMNSLRAEDTAVYYCARWSGGSGYAFDIWGQGTMVTVSSDDDKSFLEQKLISEEDLNSAVDHHHHHH | 1.02
12 | MJF014, C06 (VL/GS3/VH) scFv with VL M4L (scFv, Kabat positions) scFv: DIQLTQSPLSLSASVGDRVTITCQASRDIRNYLNWYQQKPGKAPKLLIYDASSLQTGVPSRFGGSGSGTDFSFTIGSLQPEDIATYYCQQFDSLPHTFGQGTKLEIKGGGGSGGGGSGGGGSEVQLLESGGGLVQPGGSLRLSCAASGFTFSIYRMQWVRQAPGKGLEWVSGISPSGGTTWYADSVKGRFTISRDNSKNTLYLQMNSLRAEDTAVYYCARWSGGSGYAFDIWGQGTMVTVSSDDDKSFLEQKLISEEDLNSAVDHHHHHH | 0.86
13 | MJF025, C06 (VL/GS3/VH) scFv with VL V15P (scFv, Kabat positions) scFv: DIQMTQSPLSLSASPGDRVTITCQASRDIRNYLNWYQQKPGKAPKLLIYDASSLQTGVPSRFGGSGSGTDFSFTIGSLQPEDIATYYCQQFDSLPHTFGQGTKLEIKGGGGSGGGGSGGGGSEVQLLESGGGLVQPGGSLRLSCAASGFTFSIYRMQWVRQAPGKGLEWVSGISPSGGTTWYADSVKGRFTISRDNSKNTLYLQMNSLRAEDTAVYYCARWSGGSGYAFDIWGQGTMVTVSSDDDKSFLEQKLISEEDLNSAVDHHHHHH | 1.18
14 | MJF016, C06 (VL/GS3/VH) scFv with VL D70E (scFv, Kabat positions) scFv: DIQMTQSPLSLSASVGDRVTITCQASRDIRNYLNWYQQKPGKAPKLLIYDASSLQTGVPSRFGGSGSGTEFSFTIGSLQPEDIATYYCQQFDSLPHTFGQGTKLEIKGGGGSGGGGSGGGGSEVQLLESGGGLVQPGGSLRLSCAASGFTFSIYRMQWVRQAPGKGLEWVSGISPSGGTTWYADSVKGRFTISRDNSKNTLYLQMNSLRAEDTAVYYCARWSGGSGYAFDIWGQGTMVTVSSDDDKSFLEQKLISEEDLNSAVDHHHHHH | 1.03
15 | MJF022, C06 (VL/GS3/VH) scFv with VL V15R (scFv, Kabat positions) scFv: DIQMTQSPLSLSASRGDRVTITCQASRDIRNYLNWYQQKPGKAPKLLIYDASSLQTGVPSRFGGSGSGTDFSFTIGSLQPEDIATYYCQQFDSLPHTFGQGTKLEIKGGGGSGGGGSGGGGSEVQLLESGGGLVQPGGSLRLSCAASGFTFSIYRMQWVRQAPGKGLEWVSGISPSGGTTWYADSVKGRFTISRDNSKNTLYLQMNSLRAEDTAVYYCARWSGGSGYAFDIWGQGTMVTVSSDDDKSFLEQKLISEEDLNSAVDHHHHHH | 0.76
16 | MJF015, C06 (VL/GS3/VH) scFv with VH W47F (scFv, name in Kabat numbering, Kabat positions) scFv: DIQMTQSPLSLSASVGDRVTITCQASRDIRNYLNWYQQKPGKAPKLLIYDASSLQTGVPSRFGGSGSGTDFSFTIGSLQPEDIATYYCQQFDSLPHTFGQGTKLEIKGGGGSGGGGSGGGGSEVQLLESGGGLVQPGGSLRLSCAASGFTFSIYRMQWVRQAPGKGLEFVSGISPSGGTTWYADSVKGRFTISRDNSKNTLYLQMNSLRAEDTAVYYCARWSGGSGYAFDIWGQGTMVTVSSDDDKSFLEQKLISEEDLNSAVDHHHHHH | 1.37
17 | conventional C06 (VL/GS3/VH) scFv (pXWU092) (scFv, also called WT C06 scFv) scFv: DIQMTQSPLSLSASVGDRVTITCQASRDIRNYLNWYQQKPGKAPKLLIYDASSLQTGVPSRFGGSGSGTDFSFTIGSLQPEDIATYYCQQFDSLPHTFGQGTKLEIKGGGGSGGGGSGGGGSEVQLLESGGGLVQPGGSLRLSCAASGFTFSIYRMQWVRQAPGKGLEWVSGISPSGGTTWYADSVKGRFTISRDNSKNTLYLQMNSLRAEDTAVYYCARWSGGSGYAFDIWGQGTMVTVSS | 1
18 | MJF045, stabilized C06 (I83E) scFv (scFv, Variant of pXWU092 with VL I83E (Kabat); also called C06 VL I83E scFv) scFv: DIQMTQSPLSLSASVGDRVTITCQASRDIRNYLNWYQQKPGKAPKLLIYDASSLQTGVPSRFGGSGSGTDFSFTIGSLQPEDEATYYCQQFDSLPHTFGQGTKLEIKGGGGSGGGGSGGGGSEVQLLESGGGLVQPGGSLRLSCAASGFTFSIYRMQWVRQAPGKGLEWVSGISPSGGTTWYADSVKGRFTISRDNSKNTLYLQMNSLRAEDTAVYYCARWSGGSGYAFDIWGQGTMVTVSS | 1.47
